Assay results: PMC5316886

Target: recombinant XIAP, I. scapularis (as used in the native gel, the plate-coated ELISA and the ubiquitylation assay) (I. scapularis)
Test: ELISA; 0.2 μg of XIAP coated on the plate (0.5 M carbonate-bicarbonate pH 9.5); increasing concentrations of Bendless, room temperature 1 hour; detected with α-UbcH13

concentration at saturation of binding: 9.1 µM
Substance: recombinant Bendless, I. scapularis (enzyme)
